Experiment: label from the status in PepcDB records

Question: With “MVIRVTERRVKLASIISYDFLFLVLLSGLLNLIITIFRERLLYVLSSFFQYIVSNPSVALGDALGFIFVLQALLLGLFIGGIVILSISFTINLTRIRSEYEEGVPLSTILRSRIITSSRLGIIANWISERSKRYINASADLESPTEVGVRYVAYFLVSLLVVIPVSLALSIALLSPLPFLLIFFPLTFIFYPEQKYKSRAREIRDDIQDEIPFFVTLITIINASGTTIYEGMRKILQFPIFKAMKKEALLIIRDIEFFGKSPLDALEHRSRLTLNRDYSWFLAGYSSIIRSGGDIEAYLFQKAREFLNWLQFRWRFYSERTSFLGELIVILFLIFPMFLIALAFFTSGAVISFLLIIPILFGTILYTITANNRPRYMDSIGLTKLQLLIGFIAALLTAGVIEIFLDEIYYAIGLGLLSFSLASTIFMYNQIREINDVENSLPQFLRDITEFRKIGYDLSRAIKTLAEEKRYRREFNRVLNEITKQDSMGIPITRAKINTRSWLGKFSLTTVQILIESGAVRPDLLEYLTEFTLNFIQSKKEAFSRMRAYQVLGILTPLLLIATILIAIVIIDSFTIVTLPTNTVGLPQFPNIISQFILSPVILAEMFIFILMSTFAIGLLVTKALYGTVQYMIMPAIGLTLAVLSIHFFSVIEPIILKFFSI” as the sequence, how does the protein production read?
Answer: The protein production was “failed”.

Question: Which protein production does the source give for “MVKDKNDVGPKTVAILGAGGKMGARITRKIHDSAHHLAAIEIAPEGRDRLQGMGIPLTDGDGWIDEADVVVLALPDNIIEKVAEDIVPRVRPGTIVLILDAAAPYAGVMPERADITYFIGHPCHPPLFNDETDPAARTDYHGGIAKQAIVCALMQGPEEHYAIGADICETMWSPVTRTHRVTTEQLAILEPGLSEMVAMPFVETMVHAVDECADRYGIDRQAALDFMIGHLNVEIAMWFGYSPKVPSDAALRLMEFAKDIVVKEDWREALNPAKVKQAAELIAGK” here?
Answer: Its protein production is “not failed”.

Question: Which protein production does the source give for “MVKDLSDMSLKELWQLFPIFLVEHKEEWEDWYEEEKERLLHLLPSQSIKSISHIGSTAVPDIWAKNIVDILLEVPEKEDLQDFKKRLLDAGYLLMSEGEKRLSFNKGYTKDGFAEKVFHLHLRYQGDNDELYFRDYLREYPEVAKDYERLKLGLWEKYEHNRDAYTDAKSDFIRKYTQKAKKNDKGKDN” here?
Answer: Its protein production is “not failed”.

Question: For “MVKKIVNPINIIVVVMHISVSIYALFVNVPFKAELFKDNVVLCIYVITFYIGFLLLGDFFRERKIFRKRNDGNRESKTISIIGGIFLFAGILLGMSSVMTIYNIKVDASEYSIGRIIFDTIKVDNVKRESTTSKPQGIFVQRSITTIRTEEVDGISVKSNKRVEFKHCYLYGWQVIEGKIYNVKYLPTTHRILSIEEKK”, which protein production is on record?
Answer: The protein production was “failed”.

Question: For “MVKLIHTLADHGDDVNCCAFSFSLLATCSLDKTIRLYSLRDFTELPHSPLKFHTYAVHCCCFSPSGHILASCSTDGTTVLWNTENGQMLAVMEQPSGSPVRVCQFSPDSTCLASGAADGTVVLWNAQSYKLYRCGSVKDGSLAACAFSPNGSFFVTGSSCGDLTVWDDKMRCLHSEKAHDLGITCCDFSSQPVSDGEQGLQFFRLASCGQDCQVKIWIVSFTHILGFELKYKSTLSGHCAPVLACAFSHDGQMLVSGSVDKSVIVYDTNTENILHTLTQHTRYVTTCAFAPNTLLLATGSMDKTVNIWQFDLETLCQARSTEHQLKQFTEDWSEEDVSTWLCAQDLKDLVGIFKMNNIDGKELLNLTKESLADDLKIESLGLRSKVLRKIEELRTKVKSLSSGIPDEFICPITRELMKDPVIASDGYSYEKEAMENWISKKKRTSPMTNLVLPSAVLTPNRTLKMAINRWLETHQK”, which protein production is on record?
Answer: The protein production was “failed”.

Question: With “MVKVELVYIANSKNCLHYKMDLKQGATVEEALIESNIYSTCPETRELPVGVYGKRVSVDQVLKEGDRIEIYRPLILDPKEKRRKLAQFKK” as the sequence, how does the protein production read?
Answer: Its protein production is “failed”.

Question: Which protein production does the source give for “MVKVLTACGNGMGSSMVIKMKVENALRQLGVSDIESASCSVGEAKGLASNYDIVVASNHLIHELDGRTNGKLIGLDNLMDDNEIKTKLEEALK” here?
Answer: Its protein production is “failed”.

Question: For “MVKVSIICTNYNKGSWIGEAIDSFLKQETSFPYEIIIVDDASTDHSVHIIKTYQKQYPDLIRAFFNQENQGITKTWSDICKKARGQYIARCDGDDYWIDPFKLQKQIDLLETSPESKWSNTDFDMVDSKGNIIHKDVLKNNIIPFMDSYEKMLALKGMTMASTWLVETKLMLEINDRINKDAVDDTFNIQLELFKKTKLAFLRDSTTVYRMDAESDSRSKDSEKLAQRFDRLLETQLEYIEKYPDSDYKKVLEYLLPKHNDFEKVLAQDGKNVWDNQQITIYLAKGDDQEFSEENCFQFPLQHSGNIQLTFPENIRKIRIDLSEIPSYYRQVSLVNTTVNTELLPTWTNAKVFGYSYYFIAPDPQMIYDLTAQEGQDFKLTYEWFNVDRPSQPDFLANHLVKELDQKKVELKMLSPYKYQYQKAVAERDLYLEQLNEMVVRYNSVTHSRRWTIPTKIINLFRRKK”, which protein production is on record?
Answer: Its protein production is “failed”.

Question: Which protein production does the source give for “MVKVTYDIPTCEDYCALRINAGMSPKTREAAEKGLPNALFTVTLYDKDRLIGMGRVIGDGGTVFQIVDIAVSKSYQGQDYGSLIMEHIMKYIKNVSVESAYVSLIADYPADKLYAKFGFMPTEPDSGGMYIKY” here?
Answer: The protein production was “not failed”.

Question: Which protein production does the source give for “MVLDVFIEVSLVIFVAFLISLVMRMLKQPLIIGYILTGILVSPYFLNIVRFEESISTLGHYGVTILLFMVGISLNPGYFKEIGKISVITGLGQIVFTFSIGFLISIFLGYSYIESMYISIALTFSSTIIIMKLISDKGDIDKLYGKISIGFLIVQDIVAMAILILISAFNVQSGAGELLFLLLSKIVLILTAIYIFTKYALSNFISYASKNQEFLFLFSLMWCFTLASIFHLLGFSSEIGALIAGIVLAMFPERYEIASKVRPLRDFFLILFFVVLGVQMTFETSGSFLIPAIILSIFVLFGNPIIVMILMGAFGYTKKTGFLAGLTVAQISEFSLIIASLGLRNGHLSQGIVSMITLIGIITIAGSSYFITYSEKIYSLLSNYLSIFEKKTKMSEKDFKNKNTGEIILFGADRTGKNILNVIENSKERFLIIDYNPKIIKDLSKRGYNSIYGDASNLELLNELNFKESKMLISTISDIETDILLIKTILKSNKNAIIIVIAHKIEDAIKLYEEGASYVIMPHFLGSIHASLMIQKYGLNIEEFLKEKSNHMESLKKSQELFRHTK” here?
Answer: Its protein production is “failed”.

Question: Which protein production does the source give for “MVLEAFLVKKNEPNWLVVLRTVMPLGLSYIPIGLACGVLLHAAGFNHLLTALISVMVFSGGAQFLIASMLTINAPMTTIILMMFFLELRYALLGSSLSRYLKGQSLPFIFTFAFSMNDENYAVNYLKFATDKHWKPSQALMVEHYSLLFWTVSNIIGSLIGSALTINLQVVDFALTALFIYMAIMQTKSRLIILVAVLCGVLTIGFLVLMKSTLGLVVSTLLASLTGYFIERYLLAHKPESHLLYKVHDPTGQTAMEESDK” here?
Answer: Its protein production is “failed”.

Question: Which protein production does the source give for “MVLETVSKTEPPPLLGPRISFSSDLSDGGDFICITPVMCKEDVVKGSVKVSDFEFLSSENVSPQRMLTADELFSEGKLLPFWQVKHSEKLKNITLKTNEEEEAEKRKVEVKKKDQEINNRDNRVTWFIDEDPSPRPPKCTVLWKELLRLKKQRNPSSSPVTARTVSSLSPSSSTSSSSSLEDAAKREEKEKEGKRGKKGLERTRSASMRIRPMIHVPICTPSKSSLPLPPLFPLSLKKNRVERRA” here?
Answer: Its protein production is “failed”.

Question: Which protein production does the source give for “MVLEVSDHQVLNDAEVAALLENFSSSYDYGENESDSCCTSPPCPQDFSLNFDRAFLPALYSLLFLLGLLGNGAVAAVLLSRRTALSSTDTFLLHLAVADTLLVLTLPLWAVDAAVQWVFGSGLCKVAGALFNINFYAGALLLACISFDRYLNIVHATQLYRRGPPARVTLTCLAVWGLCLLFALPDFIFLSAHHDERLNATHCQYNFPQVGRTALRVLQLVAGFLLPLLVMAYCYAHILAVLLVSRGQRRLRAMRLVVVVVVAFALCWTPYHLVVLVDILMDLGALARNCGRESRVDVAKSVTSGLGYMHCCLNPLLYAFVGVKFRERMWMLLLRLGCPNQRGLQRQPSSSRRDSSWSETSEASYSGL” here?
Answer: The protein production was “not failed”.

Question: For “MVLKAFFPTCCVSTDSGLLVGRWVPEQSSAVVLAVLHFPFIPIQVKQLLAQVRQASQVGVAVLGTWCHCRQEPEESLGRFLESLGAVFPHEPWLRLCRERGGTFWSCEATHRQAPTAPGAPGEDQVMLIFYDQRQVLLSQLHLPTVLPDRQAGATTASTGGLAAVFDTVARSEVLFRSDRFDEGPVRLSHWQSEGVEASILAELARRASGPICLLLASLLSLVSAVSACRVFKLWPLSFLGSKLSTCEQLRHRLEHLTLIFSTRKAENPAQLMRKANTVASVLLDVALGLMLLSWLHGRSRIGHLADALVPVADHVAEELQHLLQWLMGAPAGLKMNRALDQVLGRFFLYHIHLWISYIHLMSPFVEHILWHVGLSACLGLTVALSLLSDIIALLTFHIYCFYVYGARLYCLKIHGLSSLWRLFRGKKWNVLRQRVDSCSYDLDQLFIGTLLFTILLFLLPTTALYYLVFTLLRLLVVAVQGLIHLLVDLINSLPLYSLGLRLCRPYRLADKPTALQPRGAHLPPPQLWLPPQALLGRPVPQAVPWGAHLPLEAERGQAGLRELLARLAPPHGHSQPSALPGWHQLSWRMSCALWTLLCAPEHGRPCYHTLGLEVIGSEQMWGWPARLAALHHWHCLPWDPLPTCCGHHGGEHSNPRCPEHCPMPTLCTQVQRVRPPQQPQVEGWSPWGLPSGSALAVGVEGPCQDEPPSPRHPLAPSAEQHPASGGLKQSLTPVPSGPGPSLPEPHGVYLRMFPGEVAL”, which protein production is on record?
Answer: The protein production was “failed”.

Question: With “MVLLLDYWDQWAEAYRINGKSINTVYRYKLFRKHLKSRFDGRKLNSIRPIEWQKFINDFAAGKDRKEKTTRKRPRERSKDIVTKMNSYVRGMVKAAINERILFSDFTFGTKTSGVRSSGKVKVLEHHHHHH” as the sequence, how does the protein production read?
Answer: The protein production was “failed”.

Question: Which protein production does the source give for “MVLLMAVSLSFAQMKNVKEAKSIASDVKPNFNQAEKLINEAIKNPETKDLPDTWDVAGFIQKRFIEEERDKKGVLKQPFDTLKAYNSILKMFEYYTKCDDLAQVPNEKGKIKNKYRKANASTILVERPNLINGGIQFFNLDKNKEALQFFATYVESASYPMLAEQNLAKTDTLLAQIAYYATLAADRVGDKDAIIKYAPAALDDKDGGKFAMQLMADAYKAKGDTAAWVKSLEEGILKFPGNDYFFANLVDYYTSSNQASKAMEFADRMLSTDANNKLYLYVKAYLYHNMKEYDNAIEFYKKAIAADPEYAEAYSNVGLVYLMKAQDYADKATTDINDPKYAEAQATVKKFYEEAKPFYEKARALKPDQKDLWLQGLYRVYYNLNMGPEFEEIDKMMK” here?
Answer: The protein production was “failed”.

Question: For “MVLSKTASKSDDSIHSTFASRYVRNSISRFEIPKNSIPKEAAYQIINDELKFDGNPRLNLASFVTTWMEPECDKLMMESINKNNVEMDQYPVTTDLQNRCVNMIARLFNAPLGDGEAAIGVGTVGSSEAVMLAGLAFKRQWQNKRKALGLPYDRPNIVTGANIQVCLEKFARYFEVELKEVKLREGYYVMDPDKAVEMVDENTICVVAILGSTLTGEFEDVKLLNDLLVEKNKKTGWDTPIHVDAASGGFIAPFLYPDLEWDFRLPLVKSINVSGHKYGLVYAGIGWVVWRTKTDLPDELIFHINYLGADQPTFTLNFSKGSSQVIAQYYQLIRLGFEGYRNVMDNCRENMMVLRQGLEKTGRFNIVSKENGVPLVAFSLKDSSRHNEFEVAEMLRRFGWIVPAYTMPADAQHVTVLRVVIREDFSRTLAERLVADFEKVLHELDTLPARVHAKMASGKVNGVKKTPEETQREVTAYWKKFVDTKTDKNGVPLVASITNQ”, which protein production is on record?
Answer: Its protein production is “failed”.

Question: Which protein production does the source give for “MVLTKKYDKLGHILLNVFIVFCTFEVFIKGVLTLQQESSSGVNAIKIGILLFMIFAIVLKGKIKGMTTKIKGIMFIYLVFFIVLGLKILSINQMSDITGWLSDNNNLNYIFSFVCFIIILNIDIKRESVINTLIVSSTVVMVISFIFFIKNNYYGLAAPDIIQAYSMGFLNKTRMLSIFASPNHAGLYFVMVYLIVDFRGQKNLAMLFKLYKFLLIVCIMLTLSRTAIGILLLYIIIKIIRSKNAKSVVRFGIISLMVVLIGITLWIAISKYNVYFFSASYIKADNRWIKWQVAIEYIKKYWAIGAPFNIKVQMYAYVNSAITSVEFSDNLFLEIASRFGVPLIACIFIFMIKNLRRAFNEKKITDITKILVFIISSITTGSIHFTIPMILFIVYCDKFD” here?
Answer: Its protein production is “failed”.

— a protein production outcome set (Wang et al. 2014)
